Test results: patent publication US20220256794A1, “TERPENE SYNTHASES AND TRANSPORTERS” (The State of Israel, Ministry of Agriculture & Rural …, priority 2019, published 2022)

Key:
[1] = Terpene synthase activity assay with GPP; type: biochemical; conditions: TPS expressed in E. coli; 10 μM GPP, overnight at 30° C., SPME GC-MS
Description: Putative terpene synthase genes were synthesized by the TWIST Co., and cloned into Novagen pET-28a(+) with a 6×His tag at its' N-terminus. The recombinant plasmid was then sequenced for authentication and transformed into BL21(DE3) pLysS and pLysE strains of E. coli (Agilent Technologies) for heterologous expression. An overnight culture was used to inoculate a 20-200 mL culture, induced with 0.1 mM IPTG at an OD 600 nm >0,8 for initiation of recombinant protein translation then incubated at 18° C. and 250 RPM overnight. The cells were collected by centrifugation and the recombinant enzymes were extracted either as a crude extract or purified on a Ni-NTA agarose resin as previously described [Gonda I. et al., The Plant Journal (2013) 61, 458-472].
To determine the terpene synthase catalytic activity, reaction mixtures containing 100 μl of protein extract or purified protein were incubated overnight at 30° C. with either 10 μM geranyl diphosphate (GPP) or farnesyl diphosphate (FPP), in a final volume of 200 μl using a buffer containing 50 mM bis-tris, pH 6.9, 1 mM DTT, 10% (v/v) glycerol, 0.1 mM of MnCl2 and 10 mM of MgCl2. The volatiles produced were extracted by solid-phase microextraction (SPME) according to the methodology previously described [Iijima Y. et al., Plant Physiol (2004) 136: 3724-3736]. As controls, reactions were carried out without the cofactors MnCl2 and MgCl2, or protein extracts were heat inactivated by incubation at 100° C. for 5 minutes, or a short peptide product of an empty pET100 vector was utilized.
For solid-phase microextraction (SPME) analysis, a 57298-U SPME fiber assembly Divinylbenzene/Carboxen/Polydimethylsiloxane (DVB/CAR/PDMS, Supelco) needle size 23 ga, StableFlex, was used with an autosampler and analyzed by GC-MS as previously described [Davidovich-Rikanati R. et al., Nature Biotech (2007) 25:899-901; Davidovich-Rikanati R. et al., Plant J (2008) 56:228-238]. The SPME fiber were adsorbed for 30 min. by automatic HS-SPME at 50° C. followed by injection of the fiber into a GC-MS injection port for 5 min. (splitless), for desorption of the volatiles. Chiral separation was conducted on a Restek Rt™-bDEXsm column (30 m length 0.25 mm i.d., 0.25 μm film thickness, 2,3-di-O-methyl-6-O-tert-butyl dimethylsilyl beta cyclodextrin added into 14% cyanopropylphenyl/86% dimethyl polysiloxane). Helium (0.8 ml min-1) was used as a carrier gas with splitless injection. The injector temperature was 250° C., and the detector temperature was 230° C. The following conditions were used: initial temperature 40° C. for 5 min., followed by a ramp of 2° C./min. to 110° C., and 10° C./min up to 230° C. (5 min.). A quadrupole mass detector with electron ionization at 70 eV was used to acquire the MS data in the range of 41 to 350 m/z. The identification of the volatiles was assigned by comparison spectral data with the W10N11 and HPCH2205 GC-MS libraries and with authentic standard when available.

yeast cells [2] = experiment: Yeast growth (turbidity A600) in the presence of CBD; type: cell-based, Saccharomyces cerevisiae (strain Y1HGold); conditions: 0.5 mM CBD, 7-12 hours, FIG. 2
Description: (§1) The genes were expressed in yeast and tobacco. For yeast, the ABC and PTR Transporter genes were synthesized by the TWIST Co, cloned and expressed (individually) in the yeast expression vector pESC-URA (Agilent Technologies) for expression under the yeast native gal-10 promoter. Competent Saccharomyces cerevisiae (strain Y1HGold, CloneTech) cells were prepared, transformed by each of the resulting vector and selected on yeast synthetic media lacking Uracil as previously described [GietzR. D., Methods Mol. Biol. (2014) 1205:1-12].
An alternative method is to measure the yeast growth as a function of turbidity. Transformed yeast cells were grown on URA-glucose broth at 30° C. at 200 RPM, and after 24 hours 100 μl was used to inoculate 5 ml of URA-galactose broth in the same conditions till O.D.600 of 1.5. The yeast was further diluted to OD600=0.05 with 10 ml URA-galactose, and divided into two 5 ml aliquots into separate 50 ml falcon tubes. The first falcon (control) was added 78 μl acetonitrile (the solvent that the CBD was dissolved in), and the second one was added 78 μl CBD solution in acetonitrile (final CBD concentration=0.5 mM). […]

yeast cells [3] = experiment: Uptake of CBD into yeast cells; type: cell-based, Saccharomyces cerevisiae (strain Y1HGold); conditions: 0.5 mM CBD, three hour incubation, FIG. 3A and FIG. 4
Description: as §1
An additional strategy for determining transporter function is to measure the amount of exogenous CBD taken up and incorporated into the cells.
Transformed yeast cells were grown on URA-glucose broth at 30° C. at 200 RPM, and after 24 hours 100 μl was used to inoculate 5 ml of URA-galactose broth in the same conditions till OD600 of […]. The yeast was incubated with 0.5 mM CBD for 2-8 hours in 30° C. at 100 RPM, then centrifuged at 15000 g for 1 minute, and washed twice with 1 ml distilled water. The pellet was weighed and underwent HPLC analysis to determine the pellet's CBD content. The pellet was extracted in 1 ml methanol, and following centrifugation and filter was analyzed by HPLC using a diode-array detector and CBD was quantified against a commercial standard.

Molecule	Monoterpenes produced with GPP [1]	inhibition of yeast growth in response to CBD, transporter-expressing yeast vs control yeast (yeast cells [2])	net uptake of CBD into yeast cells compared to control (empty vector) yeast (yeast cells [3])
799-4: Cannabis terpene synthase gene product, amino acid SEQ ID NO: 33 (protein, Terpene Synthase Gene Amino acid sequence of the 45 identified gene products) MSNIQVLASSQLSDKIIARPTTNFHPSIWGDRFLHYNISEQDLVCKEERIEELIQVVKKEILSSNHDQLKLIDNLQRLGLSHHFESEIEKLLEHLSTTHHQNHHDLHDASLCFRLLRQHGFNVSSSIFEKFKDEKGNFKGSLITDVPGLLSLYEASHLSYVGESILDEALAFTTTHLKAIVANSKDHPLSHQISIALHRPLRKTIERLHARFYISIYEKDASHNKVLLELAKLDFNLLQCFHKKELSEIMRWWKEHEFAKKFPFARDRMVEQYFWILGVYYEPKYSRARKLLTKVIALASITDDIYDAYGTIDELELLTKAMQRWDITCMDKLEPEYLKTYYKAMLDSYEEFEKELKKEELYKLEYAKEEMKRIIGAYFEEARWLSEGYFPSLDEHLKVSYVSCGYVLLIATSYVGMYDIVTHETLNWLSKDPKIVSASTLLARFMDDIGSRKFEQKRNHIPSTVDCYMKQYEVSEEEAIKELNKRVDTHWKEINEDFIRPTVVPFPILVRVLNFTKTVDLLYKEGDDQYTNVGKVLKESIAALLIDSIPL	myrcene	–	–
AG3403-2: Cannabis terpene synthase gene product, amino acid SEQ ID NO: 40 (protein, Terpene Synthase Gene Amino acid sequence of the 45 identified gene products) MHCITLKHQISPLLPNICSTTNFGVFFRPKLYTNYNIINNATKSRLSSACYPIQCAVVNSSNAIIDRRSANFEPSIWSFDYIQSLTSQYKGEPYTSRVKKLERDVKKILVEMENSLAQLELIDTLQRLGISYRFENEINSILNKKYVNINNPNYNLYAIALQFRLLRQHGYAVPQEIFNQLKDEIENIKKNINGNDIMGILALYEASFYEKKGESILKEARIFTTKCLKNYTIMISEQKKLLIDNDYDYDIEVVNHALELPLHRRTTRTEAKWFIDAYAKKQDMNPMLLELAKLNFNTVQSTHHEDLKHIFRWWRHTKLGEKLNFARDRLMECFLWNIGIRFESKFSYFRTKTAKLFELVTFIDDIYDVYGTLDELELFTKAVERWDVKMINELPEYMKMPYLVLHNTINDMVFEVLRDQEISINIQYLKKTWVDMCKSFLQEAKWYYSGYTPTLEEYIENGWISVGAPVILVHAYFFHANNNRTITNTKEIFECLEHGYYPAIIRHSAIILRFTNDLTTSSEELKRGDAPTSIQCYMQEKNVSEEEAREHIKFLINEAWKEMNNDVGLYPISLTEDATNFAKMGFFIYQHGDGHSSQDNQSKQKISSLIIEPIPLYT	beta-myrcene and geraniol	–	–
T-AG2575-1: Cannabis ABC-G transporter gene product, amino acid SEQ ID NO: 55 (protein, ABC+PTR Transporter amino acid sequence (of the 12 identified gene products)) MEVGDLYKAGNSLRSSKGSSVWRGNNNNNNNKDEFFSKSRREDDIDDEEALTWAALEKLPTYDRLRKGILTTSKGKPTEVDVINLGSKERKDLLRRLVNVADEDNESFLLKLKQRIQTVGIELPTIEVRYENIKVEADVHVGSRALPSFINFCVNILEMLVSFLPILKSKKKHVTILDDVSGAIKPGRLTLLLGPPNSGKTTLLLTLAGKLASELKFSGRVTYNGHEMNEFIPQRTAAYISQHDVHIGEMTVRETLSFSARCQGVGTRYDMLAELSRREKEANITPDPDIDVFMKAASAEGQESSVITDYIIKILGLEGCADTMVGNEMLRGISGGQKKRVTTGEMLVGPAGALFMDEISTGLDSSTTFQIVNSLKQFAHIFEETIVISLLQPAPETYDLFDDIILLSDGQIVYQGPRENVLEFFELTGFKCPERKAIADFLQEVTSRKDQAQYWARSDQPYKFVTVNEFVEAFQSFHIGKKVVEHLSIPFDKTKSHPAALTTKPYGLNKMELLKACMSREFLLMKRNSFVHIFKIVQLGILGLISATIFLRTKMHHKTLQDGSIYLGALFFSTLMIMFNGLSEVPMTIVKLPVFYKQRDLQFFPAWAYALPSMIYKAPVAFIEVLVWMTITYYSIGFDPYFGRVVKLYVLFVIINQMASGLFRAIASIGRSMIIANTFGAFSLLLLFVLGGFVLSRDFIKGWWIWGYWISPLMYGQTGVVVNEFNGNKWKHVPPNSTETLGVQVLKARGFFTDSYWYWLGFAALSAYVVIFNFVYTLALTYLNPLEQRQAVSNENSESGDIQNDEEGEVIEMTQRPKNMGENQSKKKGMILPFEPHSICFDDVCYSVDMPQEMKGQGVVEDKLVLLKSVSGSFRPGVLTALMGVSGAGKTTLMDVLAGRKTGGYIEGDIRISGYPKKQETFARISGYCEQNDIHSPYVTVYESLLYSAWLRLPSEVDMDTRKMFIEEVMELVELVPLRQALVGLPGVNGLSTEQRKRLTIAVELVANPSIIFMDEPTSGLDARAAAIVMRTVRNTVDTGRTVVCTIHQPSIDIFEAFDELFLLKIGGEEIYVGPLGRHSCHLINYFEAIEGVSKIKEGYNPGTWMLEVSSSAQEMALGVDFANIYKNSDLYKRNKELIKELSTPAPGSKDLYFPTQFSRSLYTQCIACLWKQRQSYWRNPLYTAVRFMFTTFIALMFGTMFWDLGSKRSNKQDLTNALGSMYSAVLFIGVQNSSSVQPVVGVERTVFYREKAAGMFSAFPYTFGQVVVEIPYIICQAVVYCLIVYAMMGFEWTAVKFFWYLFFTFFSMLYFTFYGMMAVGITPNNHVASIISAAFYSIWNLFSGFIVPRTRIPIWWRWYYWGCPTAWTLYGLLVSQYGDVEDVMDAETGETVKQYLKSYFGYKHDFIGVVAMVNVFYGLLFGGIFALSIKVLNFQNR	–	reduced inhibition of growth	reduced net uptake of CBD
